From IntAct's records for PubMed 22158122

B1: TGF-beta-activated kinase 1 and MAP3K7-binding protein 3 (Homo sapiens), Q8N5C8-1 (parent)
chain: MAQSSPQLDIQVLHDLRQRFPEIPEGVVSQCMLQNNNNLEACCRALSQESSKYLYMEYHSPDDNRMNRNRLLHINLGIHSPSSYHPGDGAQLNGGRTLVHSSSDGHIDPQHAAGKQLICLVQEPHSAPAVVAATPNYNPFFMNEQNRSAATPPSQPPQQPSSMQTGMNPSAMQGPSPPPPPPSYMHIPRYSTNPITVTVSQNLPSGQTVPRALQILPQIPSNLYGSPGSIYIRQTSQSSSGRQTPQSTPWQSSPQGPVPHYSQRPLPVYPHQQNYQPSQYSPKQQQIPQSAYHSPPPSQCPSPFSSPQHQVQPSQLGHIFMPPSPSTTPPHPYQQGPPSYQKQGSHSVAYLPYTASSLSKGSMKKIEITVEPSQRPGTAINRSPSPISNQPSPRNQHSLYTATTPPSSSPSRGISSQPKPPFSVNPVYITYTQPTGPSCTPSPSPRVIPNPTTVFKITVGRATTENLLNLVDQEERSAAPEPIQPISVIPGSGGEKGSHKYQRSSSSGSDDYAYTQALLLHQRARMERLAKQLKLEKEELERLKSEVNGMEHDLMQRRLRRVSCTTAIPTPEEMTRLRSMNRQLQINVDCTLKEVDLLQSRGNFDPKAMNNFYDNIEPGPVVPPKPSKKDSSDPCTIERKARRISVTSKVQADIHDTQAAAADEHRTGSTQSPRTQPRDEDYEGAPWNCDSCTFLNHPALNRCEQCEMPRYT
partner: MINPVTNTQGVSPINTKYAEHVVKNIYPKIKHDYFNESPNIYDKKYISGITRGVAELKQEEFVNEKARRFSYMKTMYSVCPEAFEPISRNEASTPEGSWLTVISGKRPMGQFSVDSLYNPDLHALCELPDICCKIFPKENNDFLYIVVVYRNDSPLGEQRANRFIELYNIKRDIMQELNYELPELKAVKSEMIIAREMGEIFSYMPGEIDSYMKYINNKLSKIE
B2: TGF-beta-activated kinase 1 and MAP3K7-binding protein 2 (Homo sapiens), Q9NYJ8 (parent)
chain: MAQGSHQIDFQVLHDLRQKFPEVPEVVVSRCMLQNNNNLDACCAVLSQESTRYLYGEGDLNFSDDSGISGLRNHMTSLNLDLQSQNIYHHGREGSRMNGSRTLTHSISDGQLQGGQSNSELFQQEPQTAPAQVPQGFNVFGMSSSSGASNSAPHLGFHLGSKGTSSLSQQTPRFNPIMVTLAPNIQTGRNTPTSLHIHGVPPPVLNSPQGNSIYIRPYITTPGGTTRQTQQHSGWVSQFNPMNPQQVYQPSQPGPWTTCPASNPLSHTSSQQPNQQGHQTSHVYMPISSPTTSQPPTIHSSGSSQSSAHSQYNIQNISTGPRKNQIEIKLEPPQRNNSSKLRSSGPRTSSTSSSVNSQTLNRNQPTVYIAASPPNTDELMSRSQPKVYISANAATGDEQVMRNQPTLFISTNSGASAASRNMSGQVSMGPAFIHHHPPKSRAIGNNSATSPRVVVTQPNTKYTFKITVSPNKPPAVSPGVVSPTFELTNLLNHPDHYVETENIQHLTDPTLAHVDRISETRKLSMGSDDAAYTQALLVHQKARMERLQRELEIQKKKLDKLKSEVNEMENNLTRRRLKRSNSISQIPSLEEMQQLRSCNRQLQIDIDCLTKEIDLFQARGPHFNPSAIHNFYDNIGFVGPVPPKPKDQRSIIKTPKTQDTEDDEGAQWNCTACTFLNHPALIRCEQCEMPRHF
partner: B1 partner

Variants of: B1
Conditions: with nlee_eco27 nleE
C706S was tested, and the “effect of a mutation on the interaction” value was “disrupting interaction”.
For C703S, the “effect of a mutation on the interaction” value was “disrupting interaction”.
For C689S, the “effect of a mutation on the interaction” value was “disrupting interaction”.

Variants of: B2
Conditions: with nlee_eco27 nleE
For C670S, the “effect of a mutation on the interaction” value was “disrupting interaction”.
In the case of C687S, the “effect of a mutation on the interaction” value is reported as “disrupting interaction”.
C684S was tested, and the “effect of a mutation on the interaction” value was “disrupting interaction”.
